Laboratory results published in patent publication US20040146896A1, “Methods and compositions for diagnosing and treating companion animal cancer” (priority 2002, published 2004).

Tests used:
Assay type in all cases: cell-based
U937 human tumor cells [1] = assay: Annexin V FACS apoptosis assay, U937
From the text: 5. Annexin V apoptosis assay. ApoScreen Annexin V Apoptosis Kit (Cat. No. 10010-02, Southern Biotechnology Assoc. Inc.) was used for this assay. Annexin V detects the change in position of phosphatidy serine (PS) in the cell membrane. In non-apoptotic cells, most phosphatidyl serine molecules are at the inner layer of the plasma membrane. After inducing apoptosis, PS redistributes to the outer layer of the membrane. PS translocation precedes other apoptotic events allowing early detection of apoptosis. 1 ml of U937 cells (2×10^4) or any other types of cells and 1 ml of supernatant or other solutions containing apoptosis inducing agents (e.g. TRAIL) were used for assay in 6-well plate. After 48 hrs of incubation, cells were washed in 2 ml of cold PBS (Phosphate-buffered saline) and resuspended in 100 ul of cold 1× binding buffer. 10 ul of Annexin V-FITC was added to each tube and the tube was gently vortexed and subsequently incubated for 15 minutes in the dark at 4° C. 200 ul of cold 1× binding buffer was added to each tube and 10 ul-of PI was also added to each tube. The staining was then analyzed by flow cytometry.
U937 human tumor cells were grown in the presence or absence of TRAIL proteins produced from conditioned media of transfected 293 cells. The apoptosis of U937 cells induced by conditioned media was measured in this assay. […]

U937 human tumor cells [2] = assay: Cell Death Detection ELISA apoptosis assay, U937
Method: 4. Cell Death Detection ELISA Plus assay for apoptosis. The assay is based on a quantitative sandwich-enzyme-immunoassay-principle using mouse monoclonal antibodies directed against DNA and histones, respectively. This allows the specific determination of mono- and oligonucleosomes in the cytoplasmatic fraction of cell lysates. Roche kit, Cat. # 1 774 425, was used for this assay. 0.1 ml of U937 or any other types of cells (2×104 ) and 0.1 ml of tissue culture supernatant or other solutions containing apoptosis inducing agents (e.g. TRAIL) were used for this assay in 48-well plate. After 24 or 48 hrs of incubation at 3 7° C., the cells were spun at 2,000 rpm for 10 minutes. Cell pellet was then resuspended in 200 ul lysis buffer and incubated for 30 minutes at room temperature. The cell lysate was then centrifuged at 2,000 rpm for 10 minutes and diluted at 1:10 with incubation buffer. 20 ul of diluted lysate was added to coated plate (MTP from kit) and 80 ul of the immunoreagent was added to each well. MTP was then covered with adhesive cover foil and incubated under gentle shaking for 2 hours at room temperature. The solution was then removed thoroughly by tapping and subsequently rinsed 3 times with 250 ul incubation buffer. 100 ul ABTS solution was added and incubated on a plate shaker at 250 rpm for 15 minutes. Readings at 405 nm and 490 nm (background) were done on ELISA reader. […]

canine cell lines = assay: Cell Death ELISA apoptosis assay, canine cell lines; conditions: 100 ng/ml (FIG. 20B and data not shown)
Method: 4. Cell Death Detection ELISA Plus assay for apoptosis. The assay is based on a quantitative sandwich-enzyme-immunoassay-principle using mouse monoclonal antibodies directed against DNA and histones, respectively. This allows the specific determination of mono- and oligonucleosomes in the cytoplasmatic fraction of cell lysates. Roche kit, Cat. # 1 774 425, was used for this assay. 0.1 ml of U937 or any other types of cells (2×104 ) and 0.1 ml of tissue culture supernatant or other solutions containing apoptosis inducing agents (e.g. TRAIL) were used for this assay in 48-well plate. After 24 or 48 hrs of incubation at 3 7° C., the cells were spun at 2,000 rpm for 10 minutes. Cell pellet was then resuspended in 200 ul lysis buffer and incubated for 30 minutes at room temperature. The cell lysate was then centrifuged at 2,000 rpm for 10 minutes and diluted at 1:10 with incubation buffer. 20 ul of diluted lysate was added to coated plate (MTP from kit) and 80 ul of the immunoreagent was added to each well. MTP was then covered with adhesive cover foil and incubated under gentle shaking for 2 hours at room temperature. The solution was then removed thoroughly by tapping and subsequently rinsed 3 times with 250 ul incubation buffer. 100 ul ABTS solution was added and incubated on a plate shaker at 250 rpm for 15 minutes. Readings at 405 nm and 490 nm (background) were done on ELISA reader.

B1: human commercial TRAIL: human TRAIL (Upstate Biotechnology, 100 ng/ml), positive control (protein, UniProt P50591 1-281, looked up)
Tumor necrosis factor ligand …: MAMMEVQGGPSLGQTCVLIVIFTVLLQSLCVAVTYVYFTNELKQMQDKYSKSGIACFLKEDDSYWDPNDEESMNSPCWQVKWQLRQLVRKMILRTSEETISTVQEKQQNISPLVRERGPQRVAAHITGTRGRSNTLSSPNSKNEKALGRKINSWESSRSGHSFLSNLHLRNGELVIHEKGFYYIYSQTYFRFQEEIKENTKNDKQMVQYIYKYTSYPDPILLMKSARNSCWSKDAEYGLYSIYQGGIFELKENDRIFVSVTNEHLIDMDHEASFFGAFLVG
U937 human tumor cells [1]; conditioned media of transfected 293 cells, background 15-20% (FIG. 9C)
  apoptosis of U937 cells: 45%
U937 human tumor cells [1]; experiment with bacteria expressed semi-purified TRAIL-Thio proteins (FIG. 12)
  apoptosis of U937 cells: above 85%
U937 human tumor cells [2]; conditioned media of transfected 293 cells, two independent experiments (FIG. 9B)
  apoptosis specific cell death of U937 cells, times that of control: 7 times that of control
U937 human tumor cells [2]; mammalian expressed TRAIL supernatants, commercial human TRAIL and Fas ligand 100 ng/ml (FIGS. 19B, 20B, 21B)
  induction of apoptosis of U937 cells, in words: induced potent apoptosis
Canine cell lines
  effect on canine cell lines, in words: very minimal
